Target: T1, GFP-NBR1 (human, UniProt Q14596-1 1-966)
T1 construct: NBR1, human, ORF amplified from a HeLa cDNA library; The TEV site lies between StrepII and GFP, so the cleaved protein keeps GFP; also called 6xHis‐Strep‐TEV‐GFP‐NBR1; Strep‐TEV‐GFP‐NBR1; source: Sf9 insect cells (Bac-to-Bac), purified (HisTrap, TEV cleavage, Superose6); not shown: His6, N-terminal, cleaved; StrepII, N-terminal, cleaved; GFP (meGFP, A206K), N-terminal, kept
T1 sequence (looked up): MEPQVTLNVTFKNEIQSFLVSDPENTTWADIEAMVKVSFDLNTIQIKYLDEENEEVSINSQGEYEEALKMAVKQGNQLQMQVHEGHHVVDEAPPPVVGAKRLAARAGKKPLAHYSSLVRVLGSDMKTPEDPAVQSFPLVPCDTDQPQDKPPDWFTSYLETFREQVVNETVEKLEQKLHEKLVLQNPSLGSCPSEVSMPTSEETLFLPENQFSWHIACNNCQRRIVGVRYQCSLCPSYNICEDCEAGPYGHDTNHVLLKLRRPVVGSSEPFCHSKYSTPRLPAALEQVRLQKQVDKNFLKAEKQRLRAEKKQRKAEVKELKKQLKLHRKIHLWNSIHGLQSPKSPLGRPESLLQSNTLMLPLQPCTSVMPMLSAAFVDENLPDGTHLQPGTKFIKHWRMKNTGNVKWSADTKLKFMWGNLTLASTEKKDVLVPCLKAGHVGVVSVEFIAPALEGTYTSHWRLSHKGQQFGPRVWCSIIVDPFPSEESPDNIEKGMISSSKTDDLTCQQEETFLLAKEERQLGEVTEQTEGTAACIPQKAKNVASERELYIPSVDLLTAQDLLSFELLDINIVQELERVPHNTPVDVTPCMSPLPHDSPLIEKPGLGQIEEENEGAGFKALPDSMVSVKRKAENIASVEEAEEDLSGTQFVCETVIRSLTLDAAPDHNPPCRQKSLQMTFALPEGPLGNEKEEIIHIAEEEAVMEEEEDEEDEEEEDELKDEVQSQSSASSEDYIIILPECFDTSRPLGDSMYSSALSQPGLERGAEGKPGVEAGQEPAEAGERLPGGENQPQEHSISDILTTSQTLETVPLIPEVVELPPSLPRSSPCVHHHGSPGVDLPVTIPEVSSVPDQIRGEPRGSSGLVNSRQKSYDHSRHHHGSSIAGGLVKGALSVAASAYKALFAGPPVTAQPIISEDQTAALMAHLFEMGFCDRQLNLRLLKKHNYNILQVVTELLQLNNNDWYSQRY
Assay: microscopy-based protein-protein interaction assay on beads; GFP-NBR1 on GFP-TRAP beads; 2 μM mCherry-p62 variants at equilibrium in 25 mM HEPES pH 7.5, 150 mM NaCl, 1 mM DTT; spinning disk imaging
Conditions: both partners purified

B1: mCherry-p62 PB1 (1–102) (domain or fragment, UniProt Q13501 1-102, looked up)
chain: MASLTVKAYLLGKEDAAREIRRFSFCCSPEPEAEAEAAAGPGPCERLLSRVAALFPALRPGGFQAHYRDEDGDLVAFSSDEELTMAMSYVKDDIFRIYIKEK
notes: p62/SQSTM1, PB1 domain, residues 1-102; also called isolated PB1 domain of p62; source: recombinant, purified; site-directed mutagenesis on the plasmid for the full-length protein (pET-mCherry-p62 PB1); not shown: mCherry, N-terminal, kept
B1: binds.

Reference: PMC5830917 (The EMBO Journal, 2018)
